Measurements taken from PMC4703387, “Identification of the Calmodulin-Binding Domains of Fas Death Receptor” (PLoS ONE, 2016).
Like-named read-outs stand apart in the source and are kept apart here. Each block holds one substance with its values, some of them ahead of it.

Columns and labels:
[1] = biological target: calmodulin (Homo sapiens) (UniProt P0DP23); details: cited from earlier work
[2] = biological target: calmodulin (Homo sapiens) (UniProt P0DP23); details: cited from earlier work; remark: listed apart in the source
[3] = biological target: calmodulin, calcium-bound (Ca2+/CaM) (UniProt P0DP23); experiment: SEC; Superdex 75 (10/300 GL), 50 mM Tris pH 7.0, 100 mM NaCl, 5 mM CaCl2; samples ~50-150 uM; fractions by SDS-PAGE; calibration with a low molecular weight kit
[4] = biological target: Fas-Pep2 (FasDD residues 251-288); experiment: ITC; Ca2+/CaM at 195 uM titrated into Fas-Pep2 at 17 uM, 35°C, 50 mM HEPES pH 7.0, 100 mM NaCl, 5 mM CaCl2; single set of identical sites
[5] = biological target: Fas-Pep1 (FasDD residues 209-239); experiment: ITC; Ca2+/CaM at 450 uM titrated into Fas-Pep1 at 25 uM, 25°C, 50 mM HEPES pH 7.0, 100 mM NaCl, 5 mM CaCl2; single set of identical sites

Substance: Fas death domain death domain (from UniProt P25445)
- Kd [1]: 2 µM

Substance: Fas death domain peptide 214-238 (from UniProt P25445)
- Kd [2]: 19.5 µM

Substance: Fas-Pep2 (FasDD residues 251-288) (peptide)
- stoichiometry N [3]: 1

Further lines, results first:

- stoichiometry N [3]: 1
Substance: Fas-Pep1 (FasDD residues 209-239) (peptide)

- Kd [4]: 1.1 µM
- dH [4]: -14.2 kcal/mol
- stoichiometry N [4]: 0.9
- Kd [5]: 0.3 µM
- dH [5]: 2.15 kcal/mol
- stoichiometry N [5]: 0.95
Substance: calmodulin, calcium-bound (Ca2+/CaM) (from UniProt P0DP23 1-149) (natural protein)
